Data reported in PMC6393296, “Intrinsically disordered regions regulate both catalytic and non-catalytic activities of the MutLα mismatch repair complex”.

Experiments:
[1] = molecular target: Mlh1 del348-373 (FLAG);Pms1 del438-487 (DLDMMR subunit) (Saccharomyces cerevisiae (expressed in …, UniProt P38920;P14242 1-769;1-873, del348-373|del438-487)); assay: filter binding; no nucleotide; 2 mM Mg2+; similar to WT; Filter binding: 20 mM Tris-HCl pH 7.5, 20 mM NaCl (25 mM in legends), 0.01 mM EDTA, 2 mM MgCl2, 40 ug/ml BSA, 0.1 mM DTT, 15 nM DNA, +/-1 mM ATP, 30 C, 10 min; settings: protein: recombinant;recombinant; tags: FLAG inserted at position equivalent to 499;; copies: 1;1; label: 5'-32P on AO3142; blunt
Sequence of Mlh1 del348-373 (FLAG);Pms1 del438-487 (DLDMMR subunit) (Saccharomyces cerevisiae (P38920 other isoform, or with tags, fused parts or gaps del348-373|del438-487, chain 1 of 2): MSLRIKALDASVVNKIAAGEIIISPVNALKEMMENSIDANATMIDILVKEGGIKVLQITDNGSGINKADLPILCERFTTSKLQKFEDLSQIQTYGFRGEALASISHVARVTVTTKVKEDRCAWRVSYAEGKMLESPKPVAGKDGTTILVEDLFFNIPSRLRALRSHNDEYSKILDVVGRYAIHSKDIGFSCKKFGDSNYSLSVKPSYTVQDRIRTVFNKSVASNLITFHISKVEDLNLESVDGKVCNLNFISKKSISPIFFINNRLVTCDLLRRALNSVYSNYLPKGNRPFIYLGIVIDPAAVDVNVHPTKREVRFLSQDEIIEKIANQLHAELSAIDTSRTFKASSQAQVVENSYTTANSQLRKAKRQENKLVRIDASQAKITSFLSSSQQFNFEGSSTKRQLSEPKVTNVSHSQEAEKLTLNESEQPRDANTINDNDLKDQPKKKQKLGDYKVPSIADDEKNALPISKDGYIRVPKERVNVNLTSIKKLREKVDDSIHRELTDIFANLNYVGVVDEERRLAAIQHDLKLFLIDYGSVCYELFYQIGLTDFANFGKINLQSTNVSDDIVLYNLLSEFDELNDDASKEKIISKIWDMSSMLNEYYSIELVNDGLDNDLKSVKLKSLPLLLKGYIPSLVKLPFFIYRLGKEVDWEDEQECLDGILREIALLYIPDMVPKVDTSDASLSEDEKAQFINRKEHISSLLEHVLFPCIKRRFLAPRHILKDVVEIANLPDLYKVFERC
Sequence of Mlh1 del348-373 (FLAG);Pms1 del438-487 (DLDMMR subunit) (Saccharomyces cerevisiae (P14242 other isoform, or with tags, fused parts or gaps del348-373|del438-487, chain 2 of 2): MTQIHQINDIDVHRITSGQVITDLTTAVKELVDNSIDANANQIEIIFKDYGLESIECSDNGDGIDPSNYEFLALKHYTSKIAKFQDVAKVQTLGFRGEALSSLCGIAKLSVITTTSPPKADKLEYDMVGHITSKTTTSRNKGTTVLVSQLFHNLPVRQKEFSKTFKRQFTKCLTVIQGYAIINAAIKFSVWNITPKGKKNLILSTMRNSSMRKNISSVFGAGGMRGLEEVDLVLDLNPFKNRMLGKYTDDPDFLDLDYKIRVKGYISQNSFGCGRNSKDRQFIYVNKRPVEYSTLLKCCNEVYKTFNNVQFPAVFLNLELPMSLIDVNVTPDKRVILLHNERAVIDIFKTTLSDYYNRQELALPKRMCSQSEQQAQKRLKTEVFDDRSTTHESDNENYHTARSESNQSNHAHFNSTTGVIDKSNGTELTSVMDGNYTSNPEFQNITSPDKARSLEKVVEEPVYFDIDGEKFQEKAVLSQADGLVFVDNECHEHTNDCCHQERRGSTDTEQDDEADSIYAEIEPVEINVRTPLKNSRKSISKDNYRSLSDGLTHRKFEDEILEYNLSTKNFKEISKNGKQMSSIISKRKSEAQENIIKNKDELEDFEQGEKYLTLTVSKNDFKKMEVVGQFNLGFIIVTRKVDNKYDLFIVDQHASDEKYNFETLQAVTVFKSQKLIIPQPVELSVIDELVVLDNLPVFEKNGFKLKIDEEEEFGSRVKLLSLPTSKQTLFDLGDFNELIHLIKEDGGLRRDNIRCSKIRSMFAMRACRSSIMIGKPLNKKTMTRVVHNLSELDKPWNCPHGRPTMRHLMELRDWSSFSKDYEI

[2] = molecular target: Mlh1 del348-373 (FLAG);Pms1 del584-634 (DLDnull subunit) (Saccharomyces cerevisiae (expressed in …, UniProt P38920;P14242 1-769;1-873, del348-373|del584-634)); assay: as above; settings: protein: recombinant;recombinant; tags: FLAG inserted at position equivalent to 499;; copies: 1;1; label: 5'-32P on AO3142; blunt
Sequence of Mlh1 del348-373 (FLAG);Pms1 del584-634 (DLDnull subunit) (Saccharomyces cerevisiae (P38920 other isoform, or with tags, fused parts or gaps del348-373|del584-634, chain 1 of 2): as the sequence (P38920 other isoform, or with tags, fused parts or gaps del348-373|del438-487, chain 1 of 2) above
Sequence of Mlh1 del348-373 (FLAG);Pms1 del584-634 (DLDnull subunit) (Saccharomyces cerevisiae (P14242 other isoform, or with tags, fused parts or gaps del348-373|del584-634, chain 2 of 2): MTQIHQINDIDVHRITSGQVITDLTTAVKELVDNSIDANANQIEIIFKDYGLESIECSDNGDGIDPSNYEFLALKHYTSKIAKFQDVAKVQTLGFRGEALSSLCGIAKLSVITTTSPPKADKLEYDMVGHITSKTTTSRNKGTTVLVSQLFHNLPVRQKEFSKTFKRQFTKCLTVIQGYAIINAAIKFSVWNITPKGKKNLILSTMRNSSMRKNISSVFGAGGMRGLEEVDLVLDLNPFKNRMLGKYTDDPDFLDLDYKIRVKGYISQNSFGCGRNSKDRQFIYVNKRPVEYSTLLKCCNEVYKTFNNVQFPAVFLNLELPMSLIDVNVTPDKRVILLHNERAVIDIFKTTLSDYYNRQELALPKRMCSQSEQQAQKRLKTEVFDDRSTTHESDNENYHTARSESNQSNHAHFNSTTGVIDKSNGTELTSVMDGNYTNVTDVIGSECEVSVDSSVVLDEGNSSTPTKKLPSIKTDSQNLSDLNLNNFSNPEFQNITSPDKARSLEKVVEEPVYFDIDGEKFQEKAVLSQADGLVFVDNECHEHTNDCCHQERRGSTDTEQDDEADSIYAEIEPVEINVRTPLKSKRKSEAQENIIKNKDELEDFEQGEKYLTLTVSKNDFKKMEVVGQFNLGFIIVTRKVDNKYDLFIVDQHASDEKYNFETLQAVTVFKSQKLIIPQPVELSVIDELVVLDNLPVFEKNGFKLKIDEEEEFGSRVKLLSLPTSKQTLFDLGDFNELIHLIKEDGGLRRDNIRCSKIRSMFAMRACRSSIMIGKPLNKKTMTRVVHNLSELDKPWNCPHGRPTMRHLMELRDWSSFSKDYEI

[3] = molecular target: Mlh1 (WT, FLAG);Pms1 (WT) (Saccharomyces cerevisiae (expressed in …, UniProt P38920;P14242 1-769;1-873, |)); assay: filter binding; no nucleotide; 2 mM Mg2+; Filter binding: 20 mM Tris-HCl pH 7.5, 20 mM NaCl (25 mM in legends), 0.01 mM EDTA, 2 mM MgCl2, 40 ug/ml BSA, 0.1 mM DTT, 15 nM DNA, +/-1 mM ATP, 30 C, 10 min; settings: protein: recombinant;recombinant; tags: FLAG inserted at position 499;; copies: 1;1; label: 5'-32P on AO3142; blunt
Sequence of Mlh1 (WT, FLAG);Pms1 (WT) (Saccharomyces cerevisiae (P38920 whole entry, chain 1 of 2): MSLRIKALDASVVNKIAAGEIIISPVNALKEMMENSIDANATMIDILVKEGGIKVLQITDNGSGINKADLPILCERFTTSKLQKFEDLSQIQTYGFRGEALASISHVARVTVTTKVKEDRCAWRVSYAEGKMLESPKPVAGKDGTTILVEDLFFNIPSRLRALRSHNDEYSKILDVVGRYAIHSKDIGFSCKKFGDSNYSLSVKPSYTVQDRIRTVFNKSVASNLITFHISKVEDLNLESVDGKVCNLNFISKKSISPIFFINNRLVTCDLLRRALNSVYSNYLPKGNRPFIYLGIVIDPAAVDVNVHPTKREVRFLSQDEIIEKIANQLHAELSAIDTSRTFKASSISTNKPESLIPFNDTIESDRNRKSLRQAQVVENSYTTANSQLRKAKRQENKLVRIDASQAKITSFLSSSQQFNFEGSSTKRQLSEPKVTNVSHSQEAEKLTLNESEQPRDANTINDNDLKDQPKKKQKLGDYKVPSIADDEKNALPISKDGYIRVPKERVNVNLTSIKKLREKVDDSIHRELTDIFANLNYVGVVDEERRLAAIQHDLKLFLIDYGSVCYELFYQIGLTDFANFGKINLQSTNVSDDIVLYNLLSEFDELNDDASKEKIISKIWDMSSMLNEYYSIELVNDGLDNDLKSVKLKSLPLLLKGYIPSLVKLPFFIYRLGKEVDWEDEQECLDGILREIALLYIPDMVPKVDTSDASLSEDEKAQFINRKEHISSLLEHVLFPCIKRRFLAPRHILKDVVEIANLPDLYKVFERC
Sequence of Mlh1 (WT, FLAG);Pms1 (WT) (Saccharomyces cerevisiae (P14242 whole entry, chain 2 of 2): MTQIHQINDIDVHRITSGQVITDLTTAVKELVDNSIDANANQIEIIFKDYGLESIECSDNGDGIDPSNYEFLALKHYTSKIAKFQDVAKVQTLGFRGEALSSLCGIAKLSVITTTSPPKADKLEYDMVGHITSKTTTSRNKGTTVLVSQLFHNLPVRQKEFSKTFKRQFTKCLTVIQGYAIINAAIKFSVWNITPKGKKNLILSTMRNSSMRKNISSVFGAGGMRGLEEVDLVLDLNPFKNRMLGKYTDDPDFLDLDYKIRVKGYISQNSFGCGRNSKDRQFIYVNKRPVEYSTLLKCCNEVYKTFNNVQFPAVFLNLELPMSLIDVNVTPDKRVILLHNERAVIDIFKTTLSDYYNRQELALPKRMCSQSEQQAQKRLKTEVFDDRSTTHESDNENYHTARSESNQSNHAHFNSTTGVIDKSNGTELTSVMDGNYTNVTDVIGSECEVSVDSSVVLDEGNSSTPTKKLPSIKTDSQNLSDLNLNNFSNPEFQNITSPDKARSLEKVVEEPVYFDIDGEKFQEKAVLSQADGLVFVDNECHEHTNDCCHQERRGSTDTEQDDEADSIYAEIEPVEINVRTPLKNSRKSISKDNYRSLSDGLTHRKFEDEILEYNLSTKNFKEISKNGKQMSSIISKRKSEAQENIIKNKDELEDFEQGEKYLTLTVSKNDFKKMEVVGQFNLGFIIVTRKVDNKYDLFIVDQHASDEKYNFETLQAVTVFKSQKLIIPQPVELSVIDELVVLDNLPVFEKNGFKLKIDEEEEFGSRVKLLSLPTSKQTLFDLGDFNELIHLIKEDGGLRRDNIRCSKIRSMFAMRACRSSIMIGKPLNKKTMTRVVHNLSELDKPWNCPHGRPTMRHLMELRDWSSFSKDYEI

Measured: binding result

B1: 49-bp homoduplex AO3142/AO3144 (dsDNA)
DNA 1: GGGTCAACGTGGGCAAAGATGTCCTAGCAAGTCAGAATTCGGTAGCGTG
DNA 2: CACGCTACCGAATTCTGACTTGCTAGGACATCTTTGCCCACGTTGACCC
binds: all assays above
